The supplement of paper PMC7877785
± gives the uncertainty stated by the source.

Test: self-splicing fitness, log relative to wild type (ln ratio); higher = more splicing; Tetrahymena group I intron in knt gene, E. coli kanamycin selection, DiMSum; sequences stand for … in CUCUCU…GGAGGGAAAAGUUAUCAGGCAUGCACCUGGUAGCUAGUCUUUAAACCAAUAGAUUGCAUCGGUUUAAAAGGCAAGACCGUCAAAUUGCGGGAAAGGGGUCAACAGCCGUUCAGUACCAAGUCUCAGGGGAAACUUUGAGAUGGCCUUGCAAAGGGUAUGGUAAUAAGCUGACGGACAUGGUCCUAACCACGCAGCCAAGUCCUAAGUCAACAGAUCUUCUGUUGAUAUGGAUGCAGUUCACAGACUAAAUGUCGGUCGGGGAAGAUGUAUUCUUCUCAUAAGAUAUAGUCGGACCUCUCCUUAAUGGGAGCUAGCGGAUGAAGUGAUGCAACACUGGAGCCGCUGGGAACUAAUUUGUAUGCGAAAGUAUAUUGAUUAGUUUUGGAGUACUCGUGGUCG
In short: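 A randomised library covering all eight P1ex-region intron nucleotides was built with the intron in the knt kanamycin-resistance gene on pET-22b(+) and held in E. coli BL21(DE3). Cells were grown overnight at 37°C or 30°C on LB agar, with or without 25 μg/mL kanamycin, plus 100 μg/mL carbenicillin, 50 μM IPTG and 0.2% rhamnose, and pooled colonies were amplicon-sequenced on an Illumina HiSeq 2500. DiMSum fitness is the error-weighted combination of wild-type-normalised replicate fold changes, kanamycin versus none.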

| Sequence | self-splicing fitness (ln) (30 °C) | self-splicing fitness (ln) (37 °C) |
| --- | --- | --- |
| AUACAGCAAUAUUACGUCCC | -0.874 ± 0.14 | -0.261 ± 0.18 |
| AUACAGCAAUAUUACGUGAC | -1.57 ± 0.095 | -0.945 ± 0.13 |
| AUACAGCAAUAUUACGUGAG | -1.51 ± 0.06 | -0.677 ± 0.097 |
| AUACAGCAAUAUUACGUGCA | -1.01 ± 0.083 | -0.648 ± 0.085 |
| AUACAGCAAUAUUACGUGGU | -2.71 ± 0.13 | -2.27 ± 0.14 |
| AUACAGCAAUAUUACGUGUA | -2.3 ± 0.093 | -1.32 ± 0.095 |
| AUACAGCAAUAUUACGUUAA | -3.26 ± 0.18 | -1.41 ± 0.11 |
| AUACAGCAAUAUUACGUUCC | -2.46 ± 0.15 | -0.684 ± 0.14 |
| AUACAGCAAUAUUACGUUGA | -2.53 ± 0.095 | -1.44 ± 0.088 |
| AUAGAGCAAUAUUACGACAC | -0.57 ± 0.15 | -0.0339 ± 0.2 |
| AUAGAGCAAUAUUACGACCC | -2.56 ± 0.47 | -1.4 ± 0.42 |
| AUAGAGCAAUAUUACGACUC | -0.707 ± 0.11 | -0.0412 ± 0.15 |
| AUAGAGCAAUAUUACGAGUG | -3.25 ± 0.21 | -0.0938 ± 0.18 |
| AUAGAGCAAUAUUACGCCUU | -1.66 ± 0.12 | 0.354 ± 0.16 |
| AUAGAGCAAUAUUACGCUAG | -1.01 ± 0.15 | -0.475 ± 0.15 |
| AUAGAGCAAUAUUACGCUCC | -0.896 ± 0.37 | -1.91 ± 0.41 |
| AUAGAGCAAUAUUACGGACA | -2.38 ± 0.27 | -0.896 ± 0.33 |
| AUAGAGCAAUAUUACGGAGG | -3.24 ± 0.22 | -1.8 ± 0.23 |
| AUAGAGCAAUAUUACGGAUA | -2.83 ± 0.31 | -1.8 ± 0.39 |
| AUAGAGCAAUAUUACGGAUG | -1.43 ± 0.12 | -2.91 ± 0.31 |
| AUAGAGCAAUAUUACGGCUA | 0.361 ± 0.077 | 0.0589 ± 0.098 |
| AUAGAGCAAUAUUACGGGCA | -2.19 ± 0.097 | -1.28 ± 0.11 |
| AUAGAGCAAUAUUACGGGCU | -4.11 ± 0.27 | -2.51 ± 0.29 |
| AUAGAGCAAUAUUACGGGGG | -3.2 ± 0.27 | -2.72 ± 0.4 |

| Sequence | self-splicing fitness (ln) (30 °C) | self-splicing fitness (ln) (37 °C) |
| --- | --- | --- |
| AUAGAGCAAUAUUACGGUAU | -0.341 ± 0.075 | -0.0895 ± 0.11 |
| AUAGAGCAAUAUUACGGUGU | -1.24 ± 0.1 | -0.567 ± 0.15 |
| AUAGAGCAAUAUUACGGUUC | -3.21 ± 0.24 | -1.29 ± 0.22 |
| AUAGAGCAAUAUUACGUAGU | -1.69 ± 0.12 | -0.153 ± 0.15 |
| AUAGAGCAAUAUUACGUAUG | -3.22 ± 0.17 | -0.602 ± 0.14 |
| AUAGAGCAAUAUUACGUGCU | -1.24 ± 0.25 | – |
| AUAGAGCAAUAUUACGUGGA | -3.98 ± 0.27 | -3.39 ± 0.29 |
| AUAGAGCAAUAUUACGUGGC | -3.18 ± 0.4 | -2.7 ± 0.26 |
| AUAGAGCAAUAUUACGUGUG | -1.61 ± 0.1 | -2.39 ± 0.2 |
| AUAGAGCAAUAUUACGUUCA | 0.258 ± 0.11 | -0.633 ± 0.12 |
| AUAGAGCAAUAUUACGUUUC | -3.32 ± 0.22 | -1.46 ± 0.24 |
| AUAUAGCAAUAUUACGACCU | -0.348 ± 0.14 | 0.267 ± 0.15 |
| AUAUAGCAAUAUUACGACGU | 0.51 ± 0.13 | 0.433 ± 0.17 |
| AUAUAGCAAUAUUACGAGAC | -3.02 ± 0.39 | -1.61 ± 0.49 |
| AUAUAGCAAUAUUACGAGUU | -3.19 ± 0.18 | -1.46 ± 0.15 |
| AUAUAGCAAUAUUACGAUGG | -3.07 ± 0.31 | -0.944 ± 0.26 |
| AUAUAGCAAUAUUACGCAGA | -2.82 ± 0.31 | -1.42 ± 0.21 |
| AUAUAGCAAUAUUACGCCCU | -0.155 ± 0.15 | 0.32 ± 0.18 |
| AUAUAGCAAUAUUACGCCUU | -1.01 ± 0.12 | -0.431 ± 0.12 |
| AUAUAGCAAUAUUACGCGUA | -1.11 ± 0.19 | -0.256 ± 0.13 |
| AUAUAGCAAUAUUACGCGUC | -3.3 ± 0.26 | -2.26 ± 0.28 |
| AUAUAGCAAUAUUACGCUCA | -0.563 ± 0.18 | 0.319 ± 0.22 |
| AUAUAGCAAUAUUACGCUCG | -0.992 ± 0.12 | 0.0571 ± 0.18 |
| AUAUAGCAAUAUUACGCUUA | -1.53 ± 0.16 | -0.0426 ± 0.15 |

| Sequence | self-splicing fitness (ln) (30 °C) | self-splicing fitness (ln) (37 °C) |
| --- | --- | --- |
| AUAUAGCAAUAUUACGGACU | -1.04 ± 0.11 | -0.14 ± 0.16 |
| AUAUAGCAAUAUUACGGCAU | -0.195 ± 0.089 | 0.155 ± 0.12 |
| AUAUAGCAAUAUUACGGGAU | -2.27 ± 0.16 | -0.966 ± 0.16 |
| AUAUAGCAAUAUUACGGGUC | -4.55 ± 0.46 | -2.17 ± 0.25 |
| AUAUAGCAAUAUUACGGUAA | -1.94 ± 0.15 | -0.869 ± 0.13 |
| AUAUAGCAAUAUUACGGUGC | -2.77 ± 0.38 | -1.94 ± 0.27 |
| AUAUAGCAAUAUUACGGUUU | -1.31 ± 0.091 | -0.854 ± 0.11 |
| AUAUAGCAAUAUUACGUAUU | -2.94 ± 0.22 | -1.63 ± 0.21 |
| AUAUAGCAAUAUUACGUGGA | -3.57 ± 0.27 | -3.04 ± 0.26 |
| AUAUAGCAAUAUUACGUGGG | -3.53 ± 0.28 | -3.28 ± 0.33 |
| AUAUAGCAAUAUUACGUUCC | -1.69 ± 0.29 | – |
| AUCAAGCAAUAUUACGACCA | -0.886 ± 0.13 | 0.0541 ± 0.14 |
| AUCAAGCAAUAUUACGACGU | 0.145 ± 0.071 | -0.14 ± 0.067 |
| AUCAAGCAAUAUUACGACUU | -0.501 ± 0.049 | 0.297 ± 0.064 |
| AUCAAGCAAUAUUACGAGUU | -1.57 ± 0.081 | -1.42 ± 0.097 |
| AUCAAGCAAUAUUACGAUGA | -0.483 ± 0.076 | -0.19 ± 0.086 |
| AUCAAGCAAUAUUACGCACA | -0.256 ± 0.066 | -0.0877 ± 0.076 |
| AUCAAGCAAUAUUACGCACG | -2.1 ± 0.15 | -2.28 ± 0.18 |
| AUCAAGCAAUAUUACGCAUG | -3.06 ± 0.12 | -1.56 ± 0.098 |
| AUCAAGCAAUAUUACGCCAU | -2.88 ± 0.19 | -1.44 ± 0.13 |
| AUCAAGCAAUAUUACGCCUC | -2.77 ± 0.23 | -1.6 ± 0.21 |
| AUCAAGCAAUAUUACGCGUU | -2.66 ± 0.089 | -0.858 ± 0.095 |
| AUCAAGCAAUAUUACGCUAA | -2.95 ± 0.17 | -1.1 ± 0.14 |
| AUCAAGCAAUAUUACGCUGU | -2.62 ± 0.097 | -1.1 ± 0.084 |

| Sequence | self-splicing fitness (ln) (30 °C) | self-splicing fitness (ln) (37 °C) |
| --- | --- | --- |
| AUCAAGCAAUAUUACGGAAC | -4.1 ± 0.15 | -2.3 ± 0.12 |
| AUCAAGCAAUAUUACGGACA | -0.967 ± 0.075 | -0.478 ± 0.093 |
| AUCAAGCAAUAUUACGGAGA | -2.57 ± 0.16 | -2.81 ± 0.24 |
| AUCAAGCAAUAUUACGGCUG | -0.736 ± 0.071 | -0.0189 ± 0.11 |
| AUCAAGCAAUAUUACGGGAG | -1.16 ± 0.097 | -0.571 ± 0.099 |
| AUCAAGCAAUAUUACGGGGU | -3.94 ± 0.2 | -2.48 ± 0.15 |
| AUCAAGCAAUAUUACGGUUA | -1.06 ± 0.092 | -0.342 ± 0.095 |
| AUCAAGCAAUAUUACGUCGA | -1.36 ± 0.068 | -0.157 ± 0.068 |
| AUCAAGCAAUAUUACGUGGU | -2.83 ± 0.2 | -3.11 ± 0.21 |
| AUCCAGCAAUAUUACGAAGA | -1.56 ± 0.18 | -1.64 ± 0.16 |
| AUCCAGCAAUAUUACGAAGG | -3.07 ± 0.2 | -2.8 ± 0.23 |
| AUCCAGCAAUAUUACGACAC | -0.468 ± 0.11 | -0.488 ± 0.16 |
| AUCCAGCAAUAUUACGACGA | -0.497 ± 0.14 | 0.0611 ± 0.12 |
| AUCCAGCAAUAUUACGACGU | -0.176 ± 0.057 | 0.696 ± 0.081 |
| AUCCAGCAAUAUUACGACUA | -0.459 ± 0.097 | -0.0254 ± 0.084 |
| AUCCAGCAAUAUUACGAGUA | -2.01 ± 0.18 | -1.07 ± 0.12 |
| AUCCAGCAAUAUUACGAGUG | -1.66 ± 0.095 | -1.77 ± 0.11 |
| AUCCAGCAAUAUUACGAUAU | -0.123 ± 0.075 | -0.114 ± 0.071 |
| AUCCAGCAAUAUUACGAUCA | -1.43 ± 0.12 | -1.09 ± 0.14 |
| AUCCAGCAAUAUUACGAUCU | -1.84 ± 0.091 | -0.641 ± 0.12 |
| AUCCAGCAAUAUUACGCAUA | -1.19 ± 0.12 | -0.443 ± 0.12 |
| AUCCAGCAAUAUUACGCGCC | -0.363 ± 0.14 | 0.126 ± 0.17 |
| AUCCAGCAAUAUUACGCUCA | 0.0746 ± 0.13 | 0.8 ± 0.17 |
